Test results reported in paper PMC4490510, “Cloning, Expression and Characterization of a Thermostable Esterase HydS14 from Actinomadura sp. Strain S14 in Pichia pastoris” (International Journal of Molecular Sciences, 2015).

Tests used:
[1] = test system: T1, CC(=O)Oc1ccc([N+](=O)[O-])cc1; experiment: purified protein; type: biochemical, Actinomadura sp. S14; details: 50 mM Tris-HCl pH 8.0, 50 °C, 0.4% Triton X-100, 0.1% gum arabic
T1 construct: ORF 258 aa, 26,604 Da, no signal peptide; secreted from Pichia pastoris X33 via pPICZalphaA with 6xHis tag (predicted 29,117 Da, ~30 kDa SDS-PAGE), Ni-Sepharose purified, not N-glycosylated

[2] = test system: T2, CCCC(=O)Oc1ccc([N+](=O)[O-])cc1; experiment: purified protein; type: biochemical, Actinomadura sp. S14; details: 50 mM Tris-HCl pH 8.0, 50 °C, 0.4% Triton X-100, 0.1% gum arabic
T2 construct: ORF 258 aa, 26,604 Da, no signal peptide; secreted from Pichia pastoris X33 via pPICZalphaA with 6xHis tag (predicted 29,117 Da, ~30 kDa SDS-PAGE), Ni-Sepharose purified, not N-glycosylated

## HydS14 (Actinomadura sp. S14)
[1]
  Km: 360 ± 10 µM
  Vmax: 35.3 µmol/min/mg
  kcat: 2.37 ± 0.06 s⁻¹
  kcat/Km: 6590 ± 40 M⁻¹ s⁻¹
[2]
  Km: 210 ± 20 µM
  Vmax: 37.1 µmol/min/mg
  kcat: 2.47 ± 0.07 s⁻¹
  kcat/Km: 11700 ± 780 M⁻¹ s⁻¹
